Laboratory results published in publication PMC5701133 (Scientific Reports, 2017).

Molecular target: T1, BRD4 ET domain (residues M610-R676) (human, UniProt O60885 610-676, uniformly 15N-labelled for the NMR titrations)
T1 construct: human BRD4, extraterminal (ET) domain, residues 610-676; also called extraterminal (ET) domain of BRD4; source: E. coli BL21-CodonPlus (pRIL), purified (HiTrap IMAC, Superdex)
Experiment: ITC; MicroCal auto-ITC200, 20 °C, PBS pH 7.4 with 0.5 mM dithiothreitol; protein (0.5 mM) in the cell, peptide (7.5 mM) in the syringe; one set of sites model
Settings: both partners purified

B1: JMJD6 peptide W85A (peptide, UniProt Q6NYC1 84-96, looked up)
peptide: KATLERLKRKYRN
notes: JMJD6 residues 84-96 with W85A; also called W85A peptide
  Kd: 675 ± 66 µM
